PMC10702828
Blank lines part the entries; values can stand above or below the substance they belong to.

Key:
[1] = target: Rix1 (Chaetomium thermophilum (endogenous in mycelium)); experiment: cryo-EM structure; pre-60S particles from the Flag eluates of PT-Rsa4 E117D with Nop7-Flag, Rix1-Flag or Flag-Las1
[2] = target: Rix1 (Chaetomium thermophilum (endogenous in mycelium)); experiment: cryo-EM structure; isolated rixosome from the PTF-Las1 eluate; Rix1 complex and Las1-Grc3 processed individually, whole rixosome at low resolution
[3] = target: polynucleotide kinase Grc3 (Chaetomium thermophilum (endogenous in mycelium)); experiment: as above
[4] = target: wild‐type ct PTF‐Las1 (Chaetomium thermophilum); experiment: as above
[5] = target: Ipi3 (Chaetomium thermophilum (endogenous in mycelium)); experiment: cryo-EM structure; pre-60S particles from the Flag eluates of PT-Rsa4 E117D with Nop7-Flag, Rix1-Flag or Flag-Las1
[6] = target: Ipi3 (Chaetomium thermophilum (endogenous in mycelium)); experiment: cryo-EM structure; isolated rixosome from the PTF-Las1 eluate; Rix1 complex and Las1-Grc3 processed individually, whole rixosome at low resolution

- stoichiometry N [1]: 2 copies
- stoichiometry N [2]: 2 copies
Substance: Rix1 (natural protein)

- stoichiometry N [3]: 2 copies
Substance: polynucleotide kinase Grc3 (enzyme)

- stoichiometry N [4]: 2 copies
Substance: wild‐type ct PTF‐Las1 (enzyme)

- stoichiometry N [5]: 2 copies
- stoichiometry N [6]: 2 copies
Substance: Ipi3 (natural protein)
